Assay results taken from paper PMC4689385.

Molecular target: KillerOrange
Assay: crystal structure; KillerOrange; hanging drop vapor diffusion at 20°C; ~22 mg/ml protein in 20 mM Tris pH 8.0, 200 mM NaCl; reservoir 0.02M Na acetate pH 5.0, 1% gamma-PGA, 3% PEG 4K; data at 100 K

Substance: KillerOrange
- stoichiometry N: 2
